From patent US20240317847A1 (Bayer, published 2024)

T1: murine IL-11 (mouse, UniProt P47873 22-199)
T1 sequence: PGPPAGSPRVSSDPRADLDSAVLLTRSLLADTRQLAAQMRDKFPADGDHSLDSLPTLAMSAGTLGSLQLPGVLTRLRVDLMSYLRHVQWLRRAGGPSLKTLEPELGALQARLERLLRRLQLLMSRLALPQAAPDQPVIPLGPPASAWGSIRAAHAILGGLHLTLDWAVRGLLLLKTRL

T2: human IL-11 (human, UniProt P20809 22-199)
T2 sequence: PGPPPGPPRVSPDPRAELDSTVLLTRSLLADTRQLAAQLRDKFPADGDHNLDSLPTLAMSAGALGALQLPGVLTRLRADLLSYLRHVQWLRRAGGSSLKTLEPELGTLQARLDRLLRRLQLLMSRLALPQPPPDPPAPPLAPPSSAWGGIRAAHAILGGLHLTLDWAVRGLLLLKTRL


Key:
[1] = molecular target: T1, murine IL-11; experiment: cell-based or functional assay
[2] = molecular target: T2, human IL-11; experiment: cell-based or functional assay

Binder	IC50, RGA 1 [1]	IC50, RGA 2 [1]	IC50, RGA 1 [2]	IC50, RGA 2 [2]
TPP-31295 (antibody, IgG4, V domains shown) VH: EVQLLESGGGLVQPGGSLRLSCAASGFTFSHYDMNWLRQAPGKGLEWVGVISYDGSNKYYADFVKGRFTISRDNSKNTLYLQMNSLRAEDTAVYYCARTPGSHFDYWGQGTLVTVSS VL: QSVLTQPPSASGTPGQRVTISCSGSSSNIGNNAVNWYQQLPGTAPKLLIYYDDLLPSGVPDRFSGSKSGTSASLAISGLRSEDEADYYCSAWDDSLNGVVFGGGTKLTVL	60 nM	37 nM	364 nM	92 nM
TPP-31299 (antibody, IgG4, V domains shown) VH: EVQLLESGGGLVQPGGSLRLSCAASGFTFSHYDMNWLRQAPGKGLEWVGVISYDGSNKFYADFVKGRFTISRDNSKNTLYLQMNSLRAEDTAVYYCARTPGSHFDYWGQGTLVTVSS VL: QSVLTQPPSASGTPGQRVTISCSGSSSNIGNNAVNWYQQLPGTAPKLLIYYDDLLPSGVPDRFSGSKSGTSASLAISGLRSEDEADYYCSAWDDSLNAVVFGGGTKLTVL	44 nM	14 nM	238 nM	114 nM
TPP-31298 (antibody, IgG4, V domains shown) VH: EVQLLESGGGLVQPGGSLRLSCAASGFTFSHYDMNWLRQAPGKGLEWVGVISYDGSNKFYADFVKGRFTISRDNSKNTLYLQMNSLRAEDTAVYYCARTPGSHFDYWGQGTLVTVSS VL: QSVLTQPPSASGTPGQRVTISCSGSSSNIGNNAVNWYQQLPGTAPKLLIYYDDLLPSGVPDRFSGSKSGTSASLAISGLRSEDEADYYCSAWDDSLSGVVFGGGTKLTVL	21 nM	6.22 nM	135 nM	33 nM
TPP-31306 (antibody, IgG4, V domains shown) VH: EVQLLESGGGLVQPGGSLRLSCAASGFTFSHYDMNWLRQAPGKGLEWVGVISYDASNKFYADFVKGRFTISRDNSKNTLYLQMNSLRAEDTAVYYCARTPGSHFDYWGQGTLVTVSS VL: QSVLTQPPSASGTPGQRVTISCSGSSSNIGNNAVNWYQQLPGTAPKLLIYYDDLLPSGVPDRFSGSKSGTSASLAISGLRSEDEADYYCSAWDDSLSGVVFGGGTKLTVL	57 nM	60 nM	126 nM	23 nM
TPP-31303 (antibody, IgG4, V domains shown) VH: EVQLLESGGGLVQPGGSLRLSCAASGFTFSHYDMNWLRQAPGKGLEWVGVISYEGSNKFYADFVKGRFTISRDNSKNTLYLQMNSLRAEDTAVYYCARTPGSHFDYWGQGTLVTVSS VL: QSVLTQPPSASGTPGQRVTISCSGSSSNIGNNAVNWYQQLPGTAPKLLIYYDDLLPSGVPDRFSGSKSGTSASLAISGLRSEDEADYYCSAWDDSLNAVVFGGGTKLTVL	4.38 nM	2.49 nM	9.08 nM	11 nM
TPP-31308 (antibody, IgG4, V domains shown) VH: EVQLLESGGGLVQPGGSLRLSCAASGFTFSHYDMNWLRQAPGKGLEWVGVISYDSSNKFYADFVKGRFTISRDNSKNTLYLQMNSLRAEDTAVYYCARTPGSHFDYWGQGTLVTVSS VL: QSVLTQPPSASGTPGQRVTISCSGSSSNIGNNAVNWYQQLPGTAPKLLIYYDDLLPSGVPDRFSGSKSGTSASLAISGLRSEDEADYYCSAWDDSLNGVVFGGGTKLTVL	63 nM	170 nM	> 500 nM	> 500 nM
TPP-31304 (antibody, IgG4, V domains shown) VH: EVQLLESGGGLVQPGGSLRLSCAASGFTFSHYDMNWLRQAPGKGLEWVGVISYDASNKFYADFVKGRFTISRDNSKNTLYLQMNSLRAEDTAVYYCARTPGSHFDYWGQGTLVTVSS VL: QSVLTQPPSASGTPGQRVTISCSGSSSNIGNNAVNWYQQLPGTAPKLLIYYDDLLPSGVPDRFSGSKSGTSASLAISGLRSEDEADYYCSAWDDSLNGVVFGGGTKLTVL	42 nM	21 nM	104 nM	35 nM
TPP-31300 (antibody, IgG4, V domains shown) VH: EVQLLESGGGLVQPGGSLRLSCAASGFTFSHYDMNWLRQAPGKGLEWVGVISYEGSNKFYADFVKGRFTISRDNSKNTLYLQMNSLRAEDTAVYYCARTPGSHFDYWGQGTLVTVSS VL: QSVLTQPPSASGTPGQRVTISCSGSSSNIGNNAVNWYQQLPGTAPKLLIYYDDLLPSGVPDRFSGSKSGTSASLAISGLRSEDEADYYCSAWDDSLNGVVFGGGTKLTVL	3.42 nM	0.81 nM	1.09 nM	4.75 nM
